The text below walks through data of patent publication US20120156198A1 (Hoffmann-La Roche, published 2012).

Changes are numbered by the printed parent chain.

Experiment [1] has as its target T1, human IL-18Rα (IL-18R1) on human cells (KG-1 cells, PBMC, TH1-cultured T cells, whole blood) (human, UniProt Q13478 19-541).
T1 sequence: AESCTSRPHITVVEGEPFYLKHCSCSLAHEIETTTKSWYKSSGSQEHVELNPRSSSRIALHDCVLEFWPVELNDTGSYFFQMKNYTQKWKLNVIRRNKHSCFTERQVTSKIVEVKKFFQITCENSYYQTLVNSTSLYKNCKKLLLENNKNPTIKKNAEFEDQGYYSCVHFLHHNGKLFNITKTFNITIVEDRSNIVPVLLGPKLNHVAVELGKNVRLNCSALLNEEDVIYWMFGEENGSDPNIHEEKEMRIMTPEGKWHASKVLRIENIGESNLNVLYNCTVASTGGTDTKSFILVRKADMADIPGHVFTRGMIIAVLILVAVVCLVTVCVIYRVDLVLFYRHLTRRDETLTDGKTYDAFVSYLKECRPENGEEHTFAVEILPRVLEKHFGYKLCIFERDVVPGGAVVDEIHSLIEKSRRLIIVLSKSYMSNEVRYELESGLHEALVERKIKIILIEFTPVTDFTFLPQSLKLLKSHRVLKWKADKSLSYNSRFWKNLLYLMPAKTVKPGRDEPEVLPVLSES
Description: cell-based or functional assay.

Experiment [2] concerns the target T1, human IL-18Rα (IL-18R1) on human cells …. The experiment in a line: cell-based or functional assay. The source holds these as a separate data set.
For experiment [3], the target named is T2, recombinant human IL-18Rα Fc chimera (R&D Systems, Cat. No. 816-LR) (human, UniProt Q13478 19-329).
T2 construct: Bought protein; also called hIL-18Rα (hFc-chimera R&D-Systems 816-LR); recombinant human IL-18Rα-Fc fusion protein; not shown: human Fc of the commercial chimera
T2 sequence: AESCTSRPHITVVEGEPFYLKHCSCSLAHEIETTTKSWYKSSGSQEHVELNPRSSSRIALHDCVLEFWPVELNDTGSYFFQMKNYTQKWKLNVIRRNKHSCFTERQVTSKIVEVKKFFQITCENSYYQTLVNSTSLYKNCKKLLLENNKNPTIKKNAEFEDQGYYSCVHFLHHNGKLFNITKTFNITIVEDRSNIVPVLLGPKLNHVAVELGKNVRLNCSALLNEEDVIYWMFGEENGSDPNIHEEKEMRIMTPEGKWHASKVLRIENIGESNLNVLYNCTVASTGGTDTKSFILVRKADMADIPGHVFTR
Description: ELISA, hFc fusion protein captured on anti-human Fc. As to the method: (§1) The test was performed on 384-well microtiter plates (MaxiSorp™, Thermo Scientific Nunc, DK, Cat. No. 464718) at RT. After each incubation step, plates were washed 3 times with PBST. At the beginning, plates were coated with 0.5 μg/ml goat anti-human IgG Fc fragment (Jackson 1 mm. Res., US, Cat. No. 109-006-170) for at least 2 hours (h). Thereafter the wells were blocked with PBS supplemented with 0.2% Tween®-20 and 2% BSA (Roche Diagnostics GmbH, DE) for 1 h. 0.2 μg/ml of recombinant human IL-18Rα-Fc fusion protein (R&D Systems, UK, Cat. No. 816-LR) was captured on plate for 1 h. For testing the binding of antibodies to other proteins of the IL-1 receptor family 0.2 μg/ml of the following recombinant human proteins conjugated to human Fc (hFc) were captured: [0194] rhIL-1RI/hFc (R&D Systems, UK, Cat. No. 269-1R) [0195] rhIL-1sRII/hFc (R&D Systems, UK, Cat. No. 263-2R) [0196] rhIL-1R3/hFc (R&D Systems, UK, Cat. No. 676-CP) [0197] rhIL-2Rα/hFc (R&D Systems, UK, Cat. No. 1020-RL) [0198] rhIL-7Rα/hFc (R&D Systems, UK, Cat. No. 306-IR) [0199] rhIL-15R/hFc (R&D Systems, UK, Cat. No. 147-IR) [0200] rhST-2/hFc (R&D Systems, UK, Cat. No. 523-ST)
(§2) After washing the plate, dilutions of purified antibodies in PBS with 0.05% BSA and 0.2% Tween®-20 were incubated with the receptor proteins for 1 h. Binding of antibodies was detected with 1:2000 diluted horseradish peroxidase (HRP)-conjugates of anti-mouse IgG (GE Healthcare, UK, Cat. No. NA9310V). After 1 h the plates were washed 6 times with PBST and developed with freshly prepared BM Blue® POD substrate solution (BM Blue®: 3,3″-5,5″-Tetramethylbenzidine, Roche Diagnostics GmbH, DE, Cat. No. 11484281001) for 30 minutes at RT. Absorbance was measured at 370 nm. The values were corrected for the control without antibody.
(In general: An ELISA detects its analyte on a solid surface through an enzyme-linked reagent.)

Experiment [4] concerns the target T3, rhIL-1RI/hFc (R&D Systems, Cat. No. 269-1R) (human, UniProt P14778 18-332).
T3 construct: Bought; not shown: human Fc (hFc) of the commercial protein
T3 sequence (looked up): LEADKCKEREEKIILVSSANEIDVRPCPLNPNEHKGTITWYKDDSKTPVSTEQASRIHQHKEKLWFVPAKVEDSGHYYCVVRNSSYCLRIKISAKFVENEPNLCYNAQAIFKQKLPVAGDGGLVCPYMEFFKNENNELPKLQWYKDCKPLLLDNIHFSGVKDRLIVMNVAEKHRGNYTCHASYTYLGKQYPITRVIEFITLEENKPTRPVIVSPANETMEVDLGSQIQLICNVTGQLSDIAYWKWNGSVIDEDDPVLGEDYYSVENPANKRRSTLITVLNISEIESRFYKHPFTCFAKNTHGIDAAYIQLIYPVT
Described as above. The procedure: as §1, §2

Experiment [5] has as its target T4, rhIL-15R/hFc (R&D Systems, Cat. No. 147-IR) (human, UniProt Q13261 31-205).
T4 construct: Bought; not shown: human Fc (hFc) of the commercial protein
Described as above. As to the method: as §1, §2

Experiment [6] deals with T2, recombinant human IL-18Rα Fc chimera …. Description: SPR (BIACORE), 37°C, antibody captured, hIL-18Rα hFc chimera in solution; apparent KD, Langmuir 1:1. As to the method: Coupling: amine coupling Buffer: 1×PBS (10×PBS, Ambion cat. AM9625), pH 7.4, 37° C. […] Association was measured by a hIL-18Rα-injection of 1.5 minutes at 37° C.; dissociation was measured by washing the chip surface with buffer for 10 minutes at 37° C. For calculation of apparent KD and other kinetic parameters the Langmuir 1:1 model was used.

T4 sequence (Q13261 31-205): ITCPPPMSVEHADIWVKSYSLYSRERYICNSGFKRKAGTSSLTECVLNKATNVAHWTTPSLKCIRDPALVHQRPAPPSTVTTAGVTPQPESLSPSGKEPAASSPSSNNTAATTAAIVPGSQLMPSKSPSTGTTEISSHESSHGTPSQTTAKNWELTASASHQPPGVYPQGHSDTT

B1: Mab 1G12 (antibody, V domains shown)
VH: QVQLQQPGAELVKPGASVRMSCKTSDYTFTSNWMHWVKQRPGQGLEWIGTIDPSDSYTYYNQKFKGRATLTVDTSSSTAYMQLSSLTSEDSAVYYCTTSGDYDADRYFDVWGAGTTVTVSS
VL: DIVLTQSPASLGVSLGQRATISCRASKSVSTSGDSYMHWYQQKPGQSPKLLIYLASNLESGVPARFSGSGSGTDFTLNIHPVEEEDAATYYCQQSRELPLSFGAGTKLELK
notes: Monoclonal antibody from immunized NMRI mice; detected with anti-mouse IgG1-PE / anti-mouse IgG; also called F20.1G12; monoclonal antibody 1G12
Turning to B1, in experiment [1], the “IL-18 induced IFNγ production by human KG-1 cells, IC50 [pM]” value came out at 27 pM. Further, the “IL-18 induced IFNγ production in human PBMC, IC50 [ng/ml]” value in experiment [2] is 0.76 ng/mL. Besides, the “absorbance at 370 nm (corrected for the control without antibody)” value in experiment [3] came out at 2.43; in experiment [4] it was 0.01; in experiment [5], 0.04. In addition, the Kd in experiment [6] amounted to 0.027 nM.

B2: Mab 2D11 (antibody, V domains shown)
VH: B1 VH with R19K, T24A, R67K, Q82H
VL: B1 VL
notes: Monoclonal antibody from immunized NMRI mice; detected with anti-mouse IgG1-PE / anti-mouse IgG; also called F20.2D11
As to B2, the “IL-18 induced IFNγ production by human KG-1 cells, IC50 [pM]” value in experiment [1] came to 43 pM. Besides, the “IL-18 induced IFNγ production in human PBMC, IC50 [ng/ml]” value in experiment [2] was 1.71 ng/mL. The entries for the “absorbance at 370 nm (corrected for the control without antibody)” value in experiment [3], in experiment [4] and in experiment [5] were 2.56, 0.02 and 0.19, respectively. For the same molecule, in experiment [6], the Kd is 0.027 nM.
